These results are taken from the nanobody polyreactivity screen of Harvey et al. (2022).

The series can be described thus: yeast display, Sf9 membrane polyspecificity reagent, FACS + sequencing; frameworks hold sequencing errors. In a few lines:
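Galactose-induced (36–48 hours) yeast carrying a synthetic nanobody display library were exposed to 10% biotinylated, detergent-solubilized Sf9 membrane reagent at 4 °C for 1 hour. FACS followed streptavidin microbead enrichment, using low and high (top ~1%) gates for expression (anti-HA) and reagent binding (streptavidin). Colony PCR, MiSeq 2 × 250 sequencing and CDR-length filtering followed. Labels for polyreactivity reflect the gate of origin.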
As for “QVQLVESGGGLVQAGGSLRLSCAASGRIFNRNAKGWYRQAPGKERELVAAISSDTSTNYADSVKGRFTISRDNAKNTVYLQMNCLKPEDTAVYYCATKYGTSNWYNTYYYWGQGTQVTVSS”, the “polyreactivity (PSR sort gate)” value is reported as “low polyreactivity”.
The result for “QVQLVESGGGLVQAGGSLRLSCAASGRIFNRNAMVWSRQAPGKERELVASISSGGRTNYADSVKGRFTISRDNAKNTVYLQMNSLKPEDTAVYYCAAKSPRILLDYWGQGTQVTVSS” reads “low polyreactivity”; that for “QVQLVESGGGLVQAGGSLRLSCAASGRIFNRYAMGWYRQAPGKEREFVAAISVRGGTTYYADSVKGRFTISRDNAKNTVYLQMNSLKPEDTAVYYCAARKISKYDYWGQGTQVTVSS”, “high polyreactivity”; that for “QVQLVESGGGLVQAGGSLRLSCAASGRIFNRYAMGWYSQAPGKERELVARITSSGSTNYADSVKGRFTISRDNAKNTVYLQMNSLKPEDTAVYYCAARKLFIPKYYYWGQGTQVTVSS”, “high polyreactivity”.
The result for “QVQLVESGGGLVQAGGSLRLSCAASGRIFNSKAKGWYRQEPGKERELVAAISWSGGTTYYADSVKGRFTISRDNAKNTVYLQMNSLKPEDTAVYYCNADLWTSYFGRGDYWGQGTQVTVSS” reads “low polyreactivity”.
In the case of “QVQLVESGGGLVQAGGSLRLSCAASGRIFNSNAMGWYRQAPGKERELVAAISSSGTRTYYADSVKGRFTISRDNAKNTVYLQMNSLKPEDTAVYYCNTYYKYAVVPSGGYWGQGTQVTVSS”, the “polyreactivity (PSR sort gate)” value is reported as “high polyreactivity”.
The result for “QVQLVESGGGLVQAGGSLRLSCAASGRIFNSNAMGWYRQAPGKERELVAAISWSGGTTYYADSVKGRFTISRDNAKNTVYLQMNSLKPEDTAVYYCNADLWTSYFGRGDYWGQGTQVTVSS” reads “low polyreactivity”; that for “QVQLVESGGGLVQAGGSLRLSCAASGRIFNSYAMGWYRQAPGKERELVAAISRNGGITYYADSVKGRFTISRDNAKNTVYLQMNSLKAEATAVYYCNADSSRRRYSSDYWGQGTQVTVSS”, “high polyreactivity”.
Under “QVQLVESGGGLVQAGGSLRLSCAASGRIFNVNAMGWYRQAPGKERELVAGITRSGGSTYYADSVKWRFTISRDNAKNTVYLQMNSLNPEDTAVYYCATQATPWYRYYYWGQGTQVTVSS” stands “high polyreactivity”; under “QVQLVESGGGLVQAGGSLRLSCAASGRIFNVYDMGRYRQAPGKERELVAAISSGANTNYADSVKGRFTISRDNAKNTVYLQMNSLKPEDTAVYYCNTEQFYDYDYTFDYWGQGTQVTVSS”, “low polyreactivity”; under “QVQLVESGGGLVQAGGSLRLSCAASGRIFNWYAMGWYRQEPGKERELVAAISTDGSTYYADSVKGRFTISRDNAKNTVYLQMNSLKPEDTAVYYCAAVPGYTHLWGGPFDYWGQGTQVTVSS”, “low polyreactivity”.
The result for “QVQLVESGGGLVQAGGSLRLSCAASGRIFNYNAMGWYRQAPGKERELVATITYIGTGTYYADSVKGRFTISRDNAKNTVYLQMNSQKPDDTAVYYCAASYRSRVWWRFDYWGQGSQVTVSS” reads “high polyreactivity”; that for “QVQLVESGGGLVQAGGSLRLSCAASGRIFNYYAMGWYRQAPGKERELVAAISKRGGRTYYADSVKGRFTISRDNAKNTVYLQMNSLKPEDTAVYYCNKGFLPSWFTYPYKYYYWGQGTQVTVSS”, “low polyreactivity”.
As for “QVQLVESGGGLVQAGGSLRLSCAASGRIFNYYAMGWYRQAPGKERELVARITVGGRTYYADSVKGRFTISRDNAKNTVYLQMNSLKPEDTAVYYCAAVFPYHFGNMDYWGQGTQVTVSS”, the “polyreactivity (PSR sort gate)” value is “high polyreactivity”.
As to “QVQLVESGGGLVQAGGSLRLSCAASGRIFPAYTMGWYRQAPGKERELVAAISRGGRTKYADSVKGRFTISRDNANNTVYLQLNSLKPEDTAVYYCDTVTTYGGVWYDYWGQGTQVTVSS”, the “polyreactivity (PSR sort gate)” value was “high polyreactivity”.
Under “QVQLVESGGGLVQAGGSLRLSCAASGRIFPAYVRVWYRQAPGKERELVAAISDRGGSTYYADSVKGRFTISRDTAKHTVSLQMHRLKPEDTAVYYCAKGGEVSQGYTDDYDYWGQGTQVSVSS” stands “low polyreactivity”; under “QVQLVESGGGLVQAGGSLRLSCAASGRIFPDYDMGWYRQAPGKERELVAAITQRGGSTYADSVKGRFTISRDNAKNTVYLQMNSLKPEDTAVYYCAREYYEAYEYWGQGTQVTVSS”, “low polyreactivity”.
Under “QVQLVESGGGLVQAGGSLRLSCAASGRIFPDYVMGWYRQAPGKEREFVAIISYSGVRTYYADSVKGRFTISRDNAKNTVYLQMNSLKPEDTAVYYCAADFKQKGHRTRTTYWGQGTQVTVSS” stands “high polyreactivity”.
On to “QVQLVESGGGLVQAGGSLRLSCAASGRIFPENAMGWYRQAPGTERELVAAISKNGGRTYYADSVKGRFTISRDNAKNTVYLQMNSLKPEDTAVYYCNRRVQARRYRYDYWGQGTQVTVSS”, for which the “polyreactivity (PSR sort gate)” value was “high polyreactivity”.
The result for “QVQLVESGGGLVQAGGSLRLSCAASGRIFPFNAMGCYRQAPGKEREFVAAIRLSGTRTYYADSVKGRFTISRDNAKNTVYLQINSLKPDDTAVYYCAAKYSGHYYNYDYWGQGTQVTVSS” reads “high polyreactivity”; that for “QVQLVESGGGLVQAGGSLRLSCAASGRIFPFYTMGWYRQAPGKERELVAAIRNAGSTKYADSVKGRFTISRDNAKNTVYLQMNSLKPEDTAVYYCNADLTRYRRYYWGQGTQVTVSS”, “low polyreactivity”; that for “QVQLVESGGGLVQAGGSLRLSCAASGRIFPGNALGWYIKAPGKEREFVASINWSVGSTFYADSVKGRFTISRDNAKHTVYLQMNSLKPEDTAVYYCAARTFGYYRSRSFNYWGQGTQVTVSS”, “high polyreactivity”.
The result for “QVQLVESGGGLVQAGGSLRLSCAASGRIFPGNAMGWYRQAPGKERELVATITESDSSTYYADSVKGRFTISRDNAKNTVYLQMNSLKPDDTAVYYFAAGPSVYWRYDYWGQGTQVTVSS” reads “low polyreactivity”; that for “QVQLVESGGGLVQAGGSLRLSCAASGRIFPGYAMGWYRQAPGKERELVAGISNDASTNYADSVKGRFTISRDNAKNTVYLQMNSLKPEDTAVYYCAAEISYLSVPRYDDWGQGTQVTVSS”, “low polyreactivity”.
For the sequence “QVQLVESGGGLVQAGGSLRLSCAASGRIFPGYAMGWYRQAPGKERELVASISRTGRTNYADSVKGRFTISRDNAKNTVYLQMNSLKPEDTAVYYCAAEYYHSSYGYGYWGQGTQVTVSS”, the “polyreactivity (PSR sort gate)” value is “low polyreactivity”.
Regarding “QVQLVESGGGLVQAGGSLRLSCAASGRIFPKYAMGWYRQAPGKERELVATINSGTRTYADSVKGRFTISRDNAKNTVYLEMNSLKPEDTAVYYCARRGYYYDYWGQGTQVTVSS”, the “polyreactivity (PSR sort gate)” value was “high polyreactivity”.
In the case of “QVQLVESGGGLVQAGGSLRLSCAASGRIFPLYAMGWYRPAPGKERELVADISVTGTSTYYADSVKGRFTISRDNAKNTVYLQMNSLKPEDTAVYYCAADLWAYGPLWRWSRADYDYWGQGTQVTVSS”, the “polyreactivity (PSR sort gate)” value is reported as “low polyreactivity”.
The result for “QVQLVESGGGLVQAGGSLRLSCAASGRIFPLYAMGWYRQAPGKERELVAAITSSGGSTYYADSVKGRFTISRDNAKNTVYLQMNSLKPEDTAVYYCAADYSVYWLDYGYWGQGTQVTVSS” reads “low polyreactivity”; that for “QVQLVESGGGLVQAGGSLRLSCAASGRIFPLYAMGWYRQAPGKERELVAAITSSGGSTYYADSVKGRFTISRDNAKNTVYLQMNSLKPEDTAVYYCADEGYYSNYHYWGQGTQVTVSS”, “low polyreactivity”.
Take “QVQLVESGGGLVQAGGSLRLSCAASGRIFPRYAMGWYRQAPGKERELVAAISWSGGRTYYADSVKGRFTISRDNAKNTVYLQMNSLKPEDTAVYYCAKYVGWYGSPGYDYWGQGTHVTVSS”: the “polyreactivity (PSR sort gate)” value is on record as “low polyreactivity”.
Under “QVQLVESGGGLVQAGGSLRLSCAASGRIFPSYAMGWYRHAPGKERELVAAITSSDSTYNADSVKGRFTISRDNAKNTVYFQMNSLKPEDTAVYYCAAAYSYSGWWWFDYWGQGTQVTVSS” stands “high polyreactivity”; under “QVQLVESGGGLVQAGGSLRLSCAASGRIFPSYAMGWYRQAPGKERELVAAISYSGASTYYADSVKGRFTISRDYAKNTVSLQMNSLKPEDTAVYYCNQLVEEDYWGQGTQVTVSS”, “low polyreactivity”.
“QVQLVESGGGLVQAGGSLRLSCAASGRIFPTNAMGWYRQAPGKERELVASITRSGSTYYADSVKGRFTISRDNAKNTVYLQMNSLKPEDTAVYYCAADRSAVQFSAFLEYDYWGQGTQVTVSS”: the “polyreactivity (PSR sort gate)” value was “low polyreactivity”.
As for “QVQLVESGGGLVQAGGSLRLSCAASGRIFPTYAMGWYRQAPGKERELVATITRRGGSTYYADSVKGRFTISRDNAKNTVYLQMNSLKPEDTAVYYCAARLWGTIRYDYWGQGTQVTVSS”, the “polyreactivity (PSR sort gate)” value is “high polyreactivity”.
“QVQLVESGGGLVQAGGSLRLSCAASGRIFPTYTMGWYRQAPGKERELVAAINRGGGSTYYADSVKGRFTISRDNAKNTVYLQMNSLKPEDTAVYYCNARTYYRYYGYDYWGQGTQVTVSS”: the “polyreactivity (PSR sort gate)” value was “low polyreactivity”.
The result for “QVQLVESGGGLVQAGGSLRLSCAASGRIFPVNAMGWYRQATGKERELVARISWRGGTYYADSVKGRFTISRDNAKNTVYLQMNSLKPEDTAVYYCAATLPSTSYWYQYGYWGQGTQVTVSS” reads “high polyreactivity”; that for “QVQLVESGGGLVQAGGSLRLSCAASGRIFPVYAMGWYRQAPGKERELVAAIRRTGGSTYYADSVKGRFTISRDNAKNTVYLQLNRLKPEDTAVYYCSVSSQPPLSRYGRFGVGYWGQGTQVTVSS”, “high polyreactivity”; that for “QVQLVESGGGLVQAGGSLRLSCAASGRIFPVYTMGWYRQAPGKERELVAAISGNGASTYYADSVKGRFTISRDNAKNTVYFHMNRLKPEYTAVYYCAAYFYYWGSTFVRYEYWGQGTQVTVSS”, “high polyreactivity”.
Under “QVQLVESGGGLVQAGGSLRLSCAASGRIFPWNPMGWYRQAPGKERELVAGINNGDRTYYADSVKGRFTISRDNAKNTVYLQMNSLKPEDTAVYYCAVDTWYFLFQYGYYQEGDYWGQGTQVTVSS” stands “low polyreactivity”.
Under “QVQLVESGGGLVQAGGSLRLSCAASGRIFPWYAMGWYRQAPGKERELVAAISWSGGRTYYADSVKGRFTISRDNAKNTVYLQMNSLKPEDTAVYYCAAERVTYTISYSYSYDYWGQGTQVTVSS” stands “high polyreactivity”; under “QVQLVESGGGLVQAGGSLRLSCAASGRIFPWYSMGWYRQAPGKERELVAAISSSGGRTYYADSVKGRFTISRDNAKNTVYLQMNSLKPVDTAVYYCAADRRYISQRTYNYWGQGTQVTVSS”, “high polyreactivity”.
